B1: MEKK1 (protein encoded by p-MEKK1, transiently expressed in COS cells) (protein)
chain: MVTAVPAVFSKLVTMLNASGSTHFTRMRRRLMAIADEVEIAEVIQLGVEDTVDGHQDSLQAVAPTSCLENSSLEHTVHREKTGKGLSATRLSASSEDISDRLAGVSVGLPSSTTTEQPKPAVQTKGRPHSQCLNSSPLSHAQLMFPAPSAPCSSAPSVPDISKHRPQAFVPCKIPSASPQTQRKFSLQFQRNCSEHRDSDQLSPVFTQSRPPPSSNIHRPKPSRPVPGSTSKLGDATKSSMTLDLGSASRCDDSFGGGGNSGNAVIPSDETVFTPVEDKCRLDVNTELNSSIEDLLEASMPSSDTTVTFKSEVAVLSPEKAENDDTYKDDVNHNQKCKEKMEAEEEEALAIAMAMSASQDALPIVPQLQVENGEDIIIIQQDTPETLPGHTKAKQPYREDAEWLKGQQIGLGAFSSCYQAQDVGTGTLMAVKQVTYVRNTSSEQEEVVEALREEIRMMGHLNHPNIIRMLGATCEKSNYNLFIEWMAGGSVAHLLSKYGAFKESVVINYTEQLLRGLSYLHENQIIHRDVKGANLLIDSTGQRLRIADFGAAARLASKGTGAGEFQGQLLGTIAFMAPEVLRGQQYGRSCDVWSVGCAIIEMACAKPPWNAEKHSNHLALIFKIASATTAPSIPSHLSPGLRDVAVRCLELQPQDRPPSRELLKHPVFRTTW
B2: HA epitope-tagged MEKK2 (expressed in HEK293 cells) (protein)
chain: MGYPYDVPDYASDDQQALNSIMQDLAVLHKPVGQHYLYKKPGKQNLHHQKNRMMFESNLNIEEEKRILQVTRPVKLEDLRSKSKIAFGQSMDLHYTNNELVIPLTTQDDLDKAVELLDRSIHMKSLKILLVVNGSTQATNLEPSPSPEDLNNTPLGAERKKRLSVVGPPNRDRSSPPPGYIPDILHQIARNGSFTSINSEGEFIPESMDQMLDPLSLSSPENSGSGSCPSLDSPLDGESYPKSRMPRAQSYPDNHQEFTDYDNPIFEKFGKGGTYPRRYHVSYHHQEYNDGRKTFPRARRTQGTSFRSPVSFSPTDHSLSTSSGSSVFTPEYDDSRIRRRGSDIDNPTLTVTDISPPSRSPRAPTNWRLGKLLGQGAFGRVYLCYDVDTGRELAVKQVQFNPESPETSKEVNALECEIQLLKNLLHERIVQYYGCLRDPQEKTLSIFMELSPGGSIKDQLKAYGALTENVTRKYTRQILEGVHYLHSNMIVHRDIKGANILRDSTGNIKLGDFGASKRLQTICLSGTGMKSVTGTPYWMSPEVISGEGYGRKADIWSVACTVVEMLTEKPPWAEFEAMAAIFKIATQPTNPKLPPHVSDYTRDFLKRIFVEAKLRPSAEELLRHMFVHYH
B3: HA epitope-tagged MEKK3 (expressed in HEK293 cells) (protein)
chain: MGYPYDVPDYASDEQEALDSIMKDLVALQMSRRTRLSGYETMKNKDTGHPNRQSDVRIKFEHNGERRIIAFSRPVRYEDVEHKVTTVFGQPLDLHYMNNELSILLKNQDDLDKAIDILDRSSSMKSLRILLLSQDRNHTSSSPHSGVSRQVRIKPSQSAGDINTIYQAPEPRSRHLSVSSQNPGRSSPPPGYVPERQQHIARQGSYTSINSEGEFIPETSEQCMLDPLSSAENSLSGSCQSLDRSADSPSFRKSQMSRARSFPDNRKECSDRETQLYDKGVKGGTYPRRYHVSVHHKDYNDGRRTFPRIRRHQGNLFTLVPSSRSLSTNGENMGVAVQYLDPRGRLRSADSENALTVQERNVPTKSPSAPINWRRGKLLGQGAFGRVYLCYDVDTGRELASKQVQFDPDSPETSKEVSALECEIQLLKNLQHERIVQYYGCLRDRAEKILTIFMEYMPGGSVKDQLKAYGALTESVTRKYTRQILEGMSYLHSNMIVHRDIKGANILRDSAGNVKLGDFGASKRLQTICMSGTGIRSVTGTPYWMSPEVISGEGYGRKADVWSLGCTVVEMLTEKPPWAEYEAMAAIFKIATQPTNPQLPSHISEHGRDFLRRIFVEARQRPSAEELLTHHFAQLVY

Experiments:
[1] = molecular target: recombinant catalytically inactive MEK-1 (Lys343 to Met, polyhistidine fusion), P31938
[2] = molecular target: recombinant JNKK (substrate in Example 2)
[3] = molecular target: recombinant MEK1 (substrate in Example 2)

Protein	phosphorylation of catalytically inactive MEK-1 by immunoprecipitated MEKK (γ-32P-ATP, SDS-PAGE, autoradiography) [1]	in vitro kinase assay of 12CA5 immunoprecipitates with a recombinant substrate and γ-32P-ATP [2]	in vitro kinase assay of 12CA5 immunoprecipitates with a recombinant substrate and γ-32P-ATP [3]
B1	MEKK phosphorylated catalytically inactive MEK-1		
B2		MEKK 2 clearly phosphorylates both MEK 1 and JNKK	MEKK 2 clearly phosphorylates both MEK 1 and JNKK
B3		it did not show measurable kinase activity toward MEK 1 or JNKK	it did not show measurable kinase activity toward MEK 1 or JNKK

— patent US20080201790
